Key:
[1] = tested on: bovine cartilage explants; test: GFP penetration into bovine cartilage explants (confocal microscopy); format: in vitro ADME
Experimental: Bovine cartilage explants were incubated for either 24 h or 8 days (37° C., 5% CO2) in 1 μM solutions of the cationic S-GFPs dissolved in PBS+1% BSA. Similarly, explants were placed in 1 μM solutions of the neutral GFPs for either 18 h or 26 h. In a separate series of experiments, bovine cartilage explants were cultured in ultra-low attachment cell culture plates (Corning) for a period of 8 days in 1 μM solutions of cationic S-GFPs dissolved in low glucose (1 g/L) DMEM (with no phenol red) with 10% fetal bovine serum (FBS) supplemented with 2 mM Lglutamine, 100 U/mL penicillin, […] streptomycin, […] amphotericin, 10 mM HEPES buffer, 0.1 mM nonessential amino acids (NEAA) and 0.4 mM proline (37° C., 5% CO2). Media changes were performed every 48 h, and fresh cationic S-GFP were added with each media change. At the end of all such experiments, explants were sectioned longitudinally into […] slices and washed with PBS. Primary bovine chondrocytes were incubated for 24 h (37° C., 5% CO2) in 100 nM solutions of GFPs dissolved in serum-free medium having the same composition as that described in the bovine cartilage harvest section. At the end of 24 h, chondrocytes were washed three times with heparin dissolved in PBS (20 U/mL) to remove non-internalized GFPs, fixed with 4% paraformaldehyde, stained with DAPI and washed with PBS. […]

[2] = tested on: human cartilage explants (knee); test: Quantitative uptake of cationic S-GFPs into human knee cartilage explants; format: in vitro ADME; details: donor knee; PBS+1% BSA or BSF
Description: Two human knee joint distal femurs were obtained through the Gift of Hope Organ and Tissue Donor Network (Itaska, IL). A Collins grade 0 normal knee was from a donor and a near-normal grade 1 from a person. (The Collins visual grading scale grades spans grades 0-4 [20], with grade 0=normal and grade 4=end stage osteoarthritis.) All procedures were approved by the Rush University Medical Center Institutional Review Board (ORA Number: 08082803IRB01-AM01) and the Committee on the Use of Humans as Experimental Subjects at MIT. […]
Experiments to quantify the uptake of GFPs into cartilage were started after the explants had been pre-equilibrated in culture medium for 48 h post-harvest. […] (Standard 96-well cell culture plates were not used because S-GFPs could stick to polystyrene even in the presence of BSA, leading to a loss of protein. In contrast, use of polypropylene with 1% BSA enabled complete recovery of fluorescence). […] At the same time, the fluorescence of the absorption bath was measured using a plate reader (Synergy H1, Biotek Instruments Inc.) (excitation: 485 nm, emission: 528 nm). […] At the end of the desorption in 10×PBS+1% BSA, cartilage explants were weighed and the fluorescence of the desorption bath was measured. […] The uptake ratio was calculated as the ratio of GFP concentration inside cartilage (mol/mg wet weight) to the final absorption bath concentration (mol/mL).

Substance	extent of penetration into cartilage explant ([1]; 24 h in PBS+1% BSA, 1 mm thick bovine explants)	localization within cartilage explant ([1]; by day 8 in PBS+1% BSA, bovine explants)	24 h uptake ratio compared among cationic S-GFPs [2]
+36 GFP: engineered supercharged green fluorescent protein carrier with net positive charge +36, SEQ ID NO: 4	did not	localized primarily inside chondrocytes throughout the tissue thickness	significantly lower compared to the other two GFP variants
+25 GFP: engineered supercharged green fluorescent protein carrier with net positive charge +25, SEQ ID NO: 3	–	–	significantly lower compared to the other two GFP variants

From patent US12653899B2, “Multi-targeted, tunable, sustained delivery of payloads to charged avascular tissues” (Massachusetts Institute of Technology, priority 2019, dated 2026)
